Measured values reported in PMC6192195, “Hampered motility promotes the evolution of wrinkly phenotype in Bacillus subtilis” (BMC Evolutionary Biology, 2018).

B3: SinR (wild type), master repressor of biofilm-related genes (natural protein, Bacillus subtilis)
chain: MIGQRIKQYRKEKGYSLSELAEKAGVAKSYLSSIERNLQTNPSIQFLEKVSAVLDVSVHTLLDEKHETEYDGQLDSEWEKLVRDAMTSGVSKKQFREFLDYQKWRKSQKEE
notes: SinR of Bacillus subtilis; Tetramer by analytical SEC; also called SinR^WT; wildtype SinR; source: E. coli BL21(DE3), purified (Ni-NTA, SEC)
B4: SinR-L99S variant (natural protein, Bacillus subtilis)
chain: MIGQRIKQYRKEKGYSLSELAEKAGVAKSYLSSIERNLQTNPSIQFLEKVSAVLDVSVHTLLDEKHETEYDGQLDSEWEKLVRDAMTSGVSKKQFREFSDYQKWRKSQKEE
notes: SinR of Bacillus subtilis with L99S, made by two-step PCR mutagenesis of the sinR construct in pET24d; L99S arose spontaneously in the wrinkly isolates (WTWS1, ΔhagWS2) during pellicle growth in the laboratory; the recombinant protein was made by site-directed mutagenesis; Tetramer by analytical SEC; source: E. coli BL21(DE3), purified (Ni-NTA, SEC)

Assays:
SinI (Bacillus subtilis) = SinI (Bacillus subtilis) (UniProt P23308); details: cited from earlier work
[1] = target: T1, SinR (wild type), master repressor of biofilm-related genes (Bacillus subtilis, UniProt P06533 1-111); test: ITC
T1 chain: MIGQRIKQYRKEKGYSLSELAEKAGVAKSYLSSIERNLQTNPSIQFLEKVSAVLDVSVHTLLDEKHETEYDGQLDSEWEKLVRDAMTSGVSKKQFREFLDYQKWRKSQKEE

SinR-L99S variant [2] = target: T2, SinR-L99S variant (Bacillus subtilis, UniProt P06533 1-111, L99S); test: ITC; first site (two-site model)
T2 sequence: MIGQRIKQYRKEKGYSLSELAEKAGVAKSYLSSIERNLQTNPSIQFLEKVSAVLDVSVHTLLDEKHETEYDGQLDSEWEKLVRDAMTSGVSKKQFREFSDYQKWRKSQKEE

SinR-L99S variant [3] = target: T2, SinR-L99S variant; test: ITC; second site (two-site model)
[4] = target: B3; test: ITC; 250 uM SinI 9-39 peptide titrated into 25 uM SinR or SinR-L99S in the cell, 25 °C, buffer C (20 mM HEPES/NaOH, 500 mM NaCl); apparent KD; one-site model for wild type, two-sites model for L99S; details: both partners purified
SinR-L99S variant [5] = target: B4; test: as above; details: both partners purified
SinR [6] = target: T3, SinR (Bacillus subtilis 168 (sequence …, UniProt P06533 1-111)); test: ITC; binding site 1 of two-sites model; N1 = 0.264 +/- 0.0114; ITC: buffer C (20 mM HEPES/NaOH, 500 mM NaCl; pH not stated for buffer C, 8.0 for buffers A/B), 25 °C; 30 µM SinR in cell, 150 µM IR-DNA titrated in; details: protein: recombinant; tags: C-terminal His6; chain copies: 4; blunt
T3 sequence: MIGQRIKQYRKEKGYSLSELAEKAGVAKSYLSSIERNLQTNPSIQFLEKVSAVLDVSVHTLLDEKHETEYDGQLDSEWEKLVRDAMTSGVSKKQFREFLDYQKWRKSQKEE

SinR [7] = target: T3, SinR; test: ITC; binding site 2 of two-sites model; N2 = 0.143 +/- 0.0123; ITC: buffer C (20 mM HEPES/NaOH, 500 mM NaCl; pH not stated for buffer C, 8.0 for buffers A/B), 25 °C; 30 µM SinR in cell, 150 µM IR-DNA titrated in; details: protein: recombinant; tags: C-terminal His6; chain copies: 4; blunt
SinR-L99S = target: T4, SinR-L99S (Bacillus subtilis 168 (sequence …, UniProt P06533 1-111, L99S)); test: ITC; binding site 1 of two-sites model; comparable to wild type; ITC: buffer C (20 mM HEPES/NaOH, 500 mM NaCl; pH not stated for buffer C, 8.0 for buffers A/B), 25 °C; 30 µM SinR in cell, 150 µM IR-DNA titrated in; details: protein: recombinant; tags: C-terminal His6; chain copies: 4; blunt
T4 sequence: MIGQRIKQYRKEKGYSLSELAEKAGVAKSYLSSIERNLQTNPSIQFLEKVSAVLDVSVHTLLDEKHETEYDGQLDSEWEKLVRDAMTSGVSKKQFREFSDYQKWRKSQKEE

[8] = target: the molecule itself; test: SEC; analytical SEC, Superdex 200 Increase 10/300 GL; SinR or SinR-L99S alone (tetrameric state also seen with IR-DNA)

Chain of SinI (Bacillus subtilis) (P23308 whole entry): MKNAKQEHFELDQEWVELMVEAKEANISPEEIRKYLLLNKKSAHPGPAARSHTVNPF

SinR (from UniProt P06533)
Kd (SinI (Bacillus subtilis)): < 10 nM

B1: SinI^9-39 peptide (SinI protein from amino acid 9 to 39) (peptide, UniProt P23308 9-39, looked up)
peptide: FELDQEWVELMVEAKEANISPEEIRKYLLLN
notes: SinI, antagonist (anti-repressor) of SinR, Bacillus subtilis, amino acids 9-39; Synthesized with a free amine at the N-terminus and a free acid group at the C-terminus; also called SinI peptide; truncated version of SinI; source: synthetic peptide (peptides&elephants GmbH)
Ka [1]: 1.41e+08 M⁻¹
Ka (SinR-L99S variant [2]): 6.16e+06 M⁻¹
Ka (SinR-L99S variant [3]): 1.75e+06 M⁻¹
Kd [4]: ~7 nM
dH [4]: -3.75 ± 0.136 kcal/mol
stoichiometry N [4]: 1.2 ± 0.02
KD site 1 (SinR-L99S variant [5]): ~162 nM
KD site 2 (SinR-L99S variant [5]): ~571 nM
dH binding event 1 (SinR-L99S variant [5]): -3.93 ± 1.45 kcal/mol
dH binding event 2 (SinR-L99S variant [5]): -15.2 kcal/mol
stoichiometry N (SinR-L99S variant [5]): ~1.35

B2: IR-DNA (SinR operator inverted repeat) (dsDNA)
DNA 1: TTTGTTCTCTAAAGAGAACTTA
DNA 2: TAAGTTCTCTTTAGAGAACAAA
Kd (SinR [6]): ~121 nM
Kd (SinR [7]): ~6 nM
Kd (SinR-L99S): ~99 nM

B3
stoichiometry N [8]: 4

B4
stoichiometry N [8]: 4
